What was measured:
[1] = molecular target: CEACAM5 coated on M270-carboxy Dynabeads (UniProt P06731); assay: IRF assay on CEACAM5-coated M270-carboxy Dynabeads, 333 µg beads
[2] = molecular target: CEACAM5 coated on M270-carboxy Dynabeads (UniProt P06731); assay: IRF assay on CEACAM5-coated M270-carboxy Dynabeads, 33 µg beads
[3] = molecular target: CEACAM5 coated on M270-carboxy Dynabeads (UniProt P06731); assay: IRF assay on CEACAM5-coated M270-carboxy Dynabeads, 100 µg beads
[4] = molecular target: human recombinant DLL3 antigen (human) (UniProt Q9NYJ7); assay: IRF assay on recombinant human DLL3 coated M-270-carboxy Dynabeads, 10 µg beads
Chain of human recombinant DLL3 antigen (human) (Q9NYJ7 27-492 limits assumed): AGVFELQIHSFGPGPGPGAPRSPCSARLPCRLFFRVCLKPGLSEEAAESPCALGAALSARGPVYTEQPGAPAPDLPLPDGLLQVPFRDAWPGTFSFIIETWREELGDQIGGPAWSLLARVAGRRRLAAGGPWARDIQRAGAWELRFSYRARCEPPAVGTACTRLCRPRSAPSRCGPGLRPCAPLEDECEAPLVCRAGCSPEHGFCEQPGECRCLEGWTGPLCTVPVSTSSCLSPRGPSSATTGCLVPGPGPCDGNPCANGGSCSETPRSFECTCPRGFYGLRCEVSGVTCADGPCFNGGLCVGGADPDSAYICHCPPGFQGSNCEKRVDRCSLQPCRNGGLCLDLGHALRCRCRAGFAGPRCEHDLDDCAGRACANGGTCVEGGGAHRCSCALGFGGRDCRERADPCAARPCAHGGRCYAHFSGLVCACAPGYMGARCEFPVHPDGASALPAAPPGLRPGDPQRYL

Chain of CEACAM5 coated on M270-carboxy Dynabeads (P06731 35-685 limits assumed): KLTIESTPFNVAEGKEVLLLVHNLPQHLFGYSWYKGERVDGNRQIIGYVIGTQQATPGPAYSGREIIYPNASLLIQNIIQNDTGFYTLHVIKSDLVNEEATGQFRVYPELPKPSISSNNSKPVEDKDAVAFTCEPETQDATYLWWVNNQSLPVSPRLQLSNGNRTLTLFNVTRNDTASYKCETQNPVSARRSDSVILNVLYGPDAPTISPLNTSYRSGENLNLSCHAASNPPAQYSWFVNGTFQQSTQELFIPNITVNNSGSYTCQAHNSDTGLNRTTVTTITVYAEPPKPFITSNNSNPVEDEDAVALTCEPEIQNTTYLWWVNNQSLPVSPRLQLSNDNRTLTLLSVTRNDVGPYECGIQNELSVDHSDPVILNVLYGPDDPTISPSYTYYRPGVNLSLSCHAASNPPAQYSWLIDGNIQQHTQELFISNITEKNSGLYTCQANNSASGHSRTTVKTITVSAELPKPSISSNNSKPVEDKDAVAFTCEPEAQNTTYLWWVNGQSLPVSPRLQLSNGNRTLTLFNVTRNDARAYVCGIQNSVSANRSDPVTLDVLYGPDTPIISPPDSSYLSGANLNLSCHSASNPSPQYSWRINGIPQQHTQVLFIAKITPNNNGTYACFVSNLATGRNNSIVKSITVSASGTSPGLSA

| IRF (immunoreactive fraction) [1] [%] | IRF (immunoreactive fraction) [2] [%] | IRF (immunoreactive fraction) [3] [%] | maximum binding (IRF) [4] [%] | Substance |
| --- | --- | --- | --- | --- |
| 97 | 43 | 88 |  | Ac-225-macropa-Labetuzumab (antibody) |
|  |  |  | 86 | Ac-225-macropa-Rovalpituzumab (antibody) |

Source: patent publication EP4552657A1, “RADIOPHARMACEUTICAL COMPLEXES AND COMBINATIONS” (priority 2023, dated 2025)
